B1: Aryl hydrocarbon receptor (Homo sapiens), P35869 (parent)
chain: MNSSSANITYASRKRRKPVQKTVKPIPAEGIKSNPSKRHRDRLNTELDRLASLLPFPQDVINKLDKLSVLRLSVSYLRAKSFFDVALKSSPTERNGGQDNCRAANFREGLNLQEGEFLLQALNGFVLVVTTDALVFYASSTIQDYLGFQQSDVIHQSVYELIHTEDRAEFQRQLHWALNPSQCTESGQGIEEATGLPQTVVCYNPDQIPPENSPLMERCFICRLRCLLDNSSGFLAMNFQGKLKYLHGQKKKGKDGSILPPQLALFAIATPLQPPSILEIRTKNFIFRTKHKLDFTPIGCDAKGRIVLGYTEAELCTRGSGYQFIHAADMLYCAESHIRMIKTGESGMIVFRLLTKNNRWTWVQSNARLLYKNGRPDYIIVTQRPLTDEEGTEHLRKRNTKLPFMFTTGEAVLYEATNPFPAIMDPLPLRTKNGTSGKDSATTSTLSKDSLNPSSLLAAMMQQDESIYLYPASSTSSTAPFENNFFNESMNECRNWQDNTAPMGNDTILKHEQIDQPQDVNSFAGGHPGLFQDSKNSDLYSIMKNLGIDFEDIRHMQNEKFFRNDFSGEVDFRDIDLTDEILTYVQDSLSKSPFIPSDYQQQQSLALNSSCMVQEHLHLEQQQQHHQKQVVVEPQQQLCQKMKHMQVNGMFENWNSNQFVPFNCPQQDPQQYNVFTDLHGISQEFPYKSEMDSMPYTQNFISCNQPVLPQHSKCTELDYPMGSFEPSPYPTTSSLEDFVTCLQLPENQKHGLNPQSAIITPQTCYAGAVSMYQCQPEPQHTHVGQMQYNPVLPGQQAFLNKFQNGVLNETYPAELNNINNTQTTTHLQPLHHPSEARPFPDLTSSGFL
partner: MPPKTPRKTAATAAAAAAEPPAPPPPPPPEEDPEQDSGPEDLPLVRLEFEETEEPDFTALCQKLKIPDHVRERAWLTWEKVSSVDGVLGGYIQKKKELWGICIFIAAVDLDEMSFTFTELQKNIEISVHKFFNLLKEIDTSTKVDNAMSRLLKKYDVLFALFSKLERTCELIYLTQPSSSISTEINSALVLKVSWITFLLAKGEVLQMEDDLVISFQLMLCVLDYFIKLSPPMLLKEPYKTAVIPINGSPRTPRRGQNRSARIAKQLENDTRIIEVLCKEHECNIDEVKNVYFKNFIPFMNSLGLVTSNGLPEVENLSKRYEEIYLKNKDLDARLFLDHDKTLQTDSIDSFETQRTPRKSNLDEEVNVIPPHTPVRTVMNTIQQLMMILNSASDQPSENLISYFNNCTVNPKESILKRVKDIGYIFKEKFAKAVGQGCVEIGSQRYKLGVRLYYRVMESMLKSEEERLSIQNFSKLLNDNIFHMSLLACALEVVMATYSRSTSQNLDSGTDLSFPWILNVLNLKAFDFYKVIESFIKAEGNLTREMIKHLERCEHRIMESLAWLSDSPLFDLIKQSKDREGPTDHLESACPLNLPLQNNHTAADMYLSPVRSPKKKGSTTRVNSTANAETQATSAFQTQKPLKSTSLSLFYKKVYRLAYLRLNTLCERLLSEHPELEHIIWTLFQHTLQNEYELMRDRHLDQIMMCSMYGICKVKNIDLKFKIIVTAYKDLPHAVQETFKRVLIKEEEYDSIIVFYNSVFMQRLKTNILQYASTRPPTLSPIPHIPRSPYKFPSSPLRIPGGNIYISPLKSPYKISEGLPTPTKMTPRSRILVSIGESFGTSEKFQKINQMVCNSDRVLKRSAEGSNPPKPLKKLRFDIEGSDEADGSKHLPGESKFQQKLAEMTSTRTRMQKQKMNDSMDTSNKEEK

Variants of: B1
Conditions: with rb_human RB1, P06400

Effect of a mutation on the interaction, disrupting interaction strength:
L331A
C333A
E335A

From IntAct's records for PubMed 11259609
